Assay results as given in the supplement of paper PMC5998384.

Experiments:
HeLa Kyoto [1] = assay: solubility in G1/S (NP-40 vs SDS abundance) (log2 ratio); higher = more soluble; conditions: cell cycle stage: G1/S
HeLa Kyoto [2] = assay: melting temperature (median over replicates), in situ; higher = more thermally stable
HeLa Kyoto [3] = assay: solubility change mitosis vs G1/S (difference of NP-40 vs SDS log2 ratios) (log2 ratio difference); higher = more soluble in mitosis
HeLa Kyoto [4] = assay: thermal stability score vs G1/S (z-score of summed log2 fold changes over temperatures); higher = more thermally stable than in G1/S
[5] = cell cycle stage: early G1 (4.5 h after nocodazole release)
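Throughout, for melting temperature (median over replicates), in situ: HeLa Kyoto cells synchronized by double thymidine or nocodazole block, proteins quantified by TMT10plex mass spectrometry, three independent biological replicates.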
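Throughout, for solubility change mitosis vs G1/S (difference of NP-40 vs SDS log2 ratios): synchronized HeLa Kyoto cells (double thymidine block for G1/S, nocodazole release for mitosis), protein amounts in NP-40 versus SDS lysates quantified by mass spectrometry, three biological replicates.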
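Throughout, for solubility in G1/S (NP-40 vs SDS abundance): HeLa Kyoto cells arrested at G1/S by double thymidine block, proteins quantified by TMT10plex mass spectrometry in mild NP-40 versus SDS extracts, three biological replicates.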
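Throughout, for thermal stability score vs G1/S (z-score of summed log2 fold changes over temperatures): synchronized HeLa Kyoto cells, proteins quantified by TMT10plex mass spectrometry, three biological replicates, mitosis taken 0.5 h after nocodazole release, G1/S directly after double thymidine block.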

## MSWGTELWDQFDSLDKHTQWGIDFLERYAKFVKERIEIEQNYAKQLRNLVKKYCPKRSSKDEEPRFTSCVAFFNILNELNDYAGQREVVAEEMAHRVYGELMRYAHDLKTERKMHLQEGRKAQQYLDMCWKQMDNSKKKFERECREAEKAQQSYERLDNDTNATKADVEKAKQQLNLRTHMADENKNEYAAQLQNFNGEQHKHFYVVIPQIYKQLQEMDERRTIKLSECYRGFADSERKVIPIISKCLEGMILAAKSVDERRDSQMVVDSFKSGFEPPGDFPFEDYSQHIYRTISDGTISASKQESGKMDAKTTVGKAKGKLWLFGKKPKPQSPPLTPTSLFTSSTPNGSQFLTFSIEPVHYCMNEIKTGKPRIPSFRSLKRGWSVKMGPALEDFSHLPPEQRRKKLQQRIDELNRELQKESDQKDALNKMKDVYEKNPQMGDPGSLQPKLAETMNNIDRLRMEIHKNEAWLSEVEGKTGGRGDRRHSSDINHLVTQGRESPEGSYTDDANQEVRGPPQQHGHHNEFDDEFEDDDPLPAIGHCKAIYPFDGHNEGTLAMKEGEVLYIIEEDKGDGWTRARRQNGEEGYVPTSYIDVTLEKNSKGS [FNBP1L]
HeLa Kyoto [1]
  solubility in G1/S (log2): 0.339
HeLa Kyoto [2]; cell cycle stage: G1/S
  melting temperature: 51.1 °C
HeLa Kyoto [2]; cell cycle stage: mitosis
  melting temperature: 51.1 °C
HeLa Kyoto [3]
  solubility change mitosis (log2): -0.034
HeLa Kyoto [4]; [5]
  thermal stability score: -0.0981
HeLa Kyoto [4]; cell cycle stage: mitosis
  thermal stability score: -0.548

## MSWLSSSQGVVLTAYHPSGKDQTVGNSHAKAGEEATSSRRYGQYTMNQESTTIKVMEKPPFDRSISQDSLDELSMEDYWIELENIKKSSENSQEDQEVVVVKEPDEGELEEEWLKEAGLSNLFGESAGDPQESIVFLSTLTRTQAAAVQKRVETVSQTLRKKNKQYQIPDVRDIFAQQRESKETAPGGTESQSLRTNENKYQGRDDEASNLVGEEKLIPPEETPAPETDINLEVSFAEQALNQKESSKEKIQKSKGDDATLPSFRLPKDKTGTTRIGDLAPQDMKKVCHLALIELTALYDVLGIELKQQKAVKIKTKDSGLFCVPLTALLEQDQRKVPGMRIPLIFQKLISRIEERGLETEGLLRIPGAAIRIKNLCQELEAKFYEGTFNWESVKQHDAASLLKLFIRELPQPLLSVEYLKAFQAVQNLPTKKQQLQALNLLVILLPDANRDTLKALLEFLQRVIDNKEKNKMTVMNVAMVMAPNLFMCHALGLKSSEQREFVMAAGTANTMHLLIKYQKLLWTIPKFIVNQVRKQNTENHKKDKRAMKKLLKKMAYDREKYEKQDKSTNDADVPQGVIRVQAPHLSKVSMAIQLTEELKASDVLARFLSQESGVAQTLKKGEVFLYEIGGNIGERCLDDDTYMKDLYQLNPNAEWVIKSKPL [ARHGAP18]
HeLa Kyoto [1]
  solubility in G1/S (log2): 0.188
HeLa Kyoto [2]; cell cycle stage: G1/S
  melting temperature: 50 °C
HeLa Kyoto [2]; cell cycle stage: mitosis
  melting temperature: 50 °C
HeLa Kyoto [3]
  solubility change mitosis (log2): -0.128
HeLa Kyoto [4]; [5]
  thermal stability score: 0.338
HeLa Kyoto [4]; cell cycle stage: mitosis
  thermal stability score: 0.693

## MSYDYHQNWGRDGGPRSSGGGYGGGPAGGHGGNRGSGGGGGGGGGGRGGRGRHPGHLKGREIGMWYAKKQGQKNKEAERQERAVVHMDERREEQIVQLLNSVQAKNDKESEAQISWFAPEDHGYGTEVSTKNTPCSENKLDIQEKKLINQEKKMFRIRNRSYIDRDSEYLLQENEPDGTLDQKLLEDLQKKKNDLRYIEMQHFREKLPSYGMQKELVNLIDNHQVTVISGETGCGKTTQVTQFILDNYIERGKGSACRIVCTQPRRISAISVAERVAAERAESCGSGNSTGYQIRLQSRLPRKQGSILYCTTGIILQWLQSDPYLSSVSHIVLDEIHERNLQSDVLMTVVKDLLNFRSDLKVILMSATLNAEKFSEYFGNCPMIHIPGFTFPVVEYLLEDVIEKIRYVPEQKEHRSQFKRGFMQGHVNRQEKEEKEAIYKERWPDYVRELRRRYSASTVDVIEMMEDDKVDLNLIVALIRYIVLEEEDGAILVFLPGWDNISTLHDLLMSQVMFKSDKFLIIPLHSLMPTVNQTQVFKRTPPGVRKIVIATNIAETSITIDDVVYVIDGGKIKETHFDTQNNISTMSAEWVSKANAKQRKGRAGRVQPGHCYHLYNGLRASLLDDYQLPEILRTPLEELCLQIKILRLGGIAYFLSRLMDPPSNEAVLLSIRHLMELNALDKQEELTPLGVHLARLPVEPHIGKMILFGALFCCLDPVLTIAASLSFKDPFVIPLGKEKIADARRKELAKDTRSDHLTVVNAFEGWEEARRRGFRYEKDYCWEYFLSSNTLQMLHNMKGQFAEHLLGAGFVSSRNPKDPESNINSDNEKIIKAVICAGLYPKVAKIRLNLGKKRKMVKVYTKTDGLVAVHPKSVNVEQTDFHYNWLIYHLKMRTSSIYLYDCTEVSPYCLLFFGGDISIQKDNDQETIAVDEWIVFQSPARIAHLVKELRKELDILLQEKIESPHPVDWNDTKSRDCAVLSAIIDLIKTQEKATPRNFPPRFQDGYYS [DHX36]
HeLa Kyoto [1]
  solubility in G1/S (log2): -0.25
HeLa Kyoto [2]; cell cycle stage: G1/S
  melting temperature: 50.8 °C
HeLa Kyoto [2]; cell cycle stage: mitosis
  melting temperature: 51.5 °C
HeLa Kyoto [3]
  solubility change mitosis (log2): -0.0322
HeLa Kyoto [4]; [5]
  thermal stability score: 0.36
HeLa Kyoto [4]; cell cycle stage: mitosis
  thermal stability score: 0.349

## MSYGPLDMYRNPGPSGPQLRDFSSIIQTCSGNIQRISQATAQIKNLMSQLGTKQDSSKLQENLQQLQHSTNQLAKETNELLKELGSLPLPLSTSEQRQQRLQKERLMNDFSAALNNFQAVQRRVSEKEKESIARARAGSRLSAEERQREEQLVSFDSHEEWNQMQSQEDEVAITEQDLELIKERETAIRQLEADILDVNQIFKDLAMMIHDQGDLIDSIEANVESSEVHVERATEQLQRAAYYQKKSRKKMCILVLVLSVIILILGLIIWLVYKTK [STX12]
HeLa Kyoto [1]
  solubility in G1/S (log2): -0.121
HeLa Kyoto [2]; cell cycle stage: G1/S
  melting temperature: 53.9 °C
HeLa Kyoto [2]; cell cycle stage: mitosis
  melting temperature: 54.3 °C
HeLa Kyoto [3]
  solubility change mitosis (log2): 0.0226
HeLa Kyoto [4]; [5]
  thermal stability score: -1.25
HeLa Kyoto [4]; cell cycle stage: mitosis
  thermal stability score: -1.93

## MSYIPGQPVTAVVQRVEIHKLRQGENLILGFSIGGGIDQDPSQNPFSEDKTDKGIYVTRVSEGGPAEIAGLQIGDKIMQVNGWDMTMVTHDQARKRLTKRSEEVVRLLVTRQSLQKAVQQSMLS [TAX1BP3]
HeLa Kyoto [1]
  solubility in G1/S (log2): 0.277
HeLa Kyoto [2]; cell cycle stage: G1/S
  melting temperature: 49.1 °C
HeLa Kyoto [2]; cell cycle stage: mitosis
  melting temperature: 49.2 °C
HeLa Kyoto [3]
  solubility change mitosis (log2): 0.0294
HeLa Kyoto [4]; [5]
  thermal stability score: 1.74
HeLa Kyoto [4]; cell cycle stage: mitosis
  thermal stability score: 1.25

## MSYPGYPPTGYPPFPGYPPAGQESSFPPSGQYPYPSGFPPMGGGAYPQVPSSGYPGAGGYPAPGGYPAPGGYPGAPQPGGAPSYPGVPPGQGFGVPPGGAGFSGYPQPPSQSYGGGPAQVPLPGGFPGGQMPSQYPGGQPTYPSQINTDSFSSYPVFSPVSLDYSSEPATVTQVTQGTIRPAANFDAIRDAEILRKAMKGFGTDEQAIVDVVANRSNDQRQKIKAAFKTSYGKDLIKDLKSELSGNMEELILALFMPPTYYDAWSLRKAMQGAGTQERVLIEILCTRTNQEIREIVRCYQSEFGRDLEKDIRSDTSGHFERLLVSMCQGNRDENQSINHQMAQEDAQRLYQAGEGRLGTDESCFNMILATRSFPQLRATMEAYSRMANRDLLSSVSREFSGYVESGLKTILQCALNRPAFFAERLYYAMKGAGTDDSTLVRIVVTRSEIDLVQIKQMFAQMYQKTLGTMIAGDTSGDYRRLLLAIVGQ [ANXA7]
HeLa Kyoto [1]
  solubility in G1/S (log2): 0.437
HeLa Kyoto [2]; cell cycle stage: G1/S
  melting temperature: 50.7 °C
HeLa Kyoto [2]; cell cycle stage: mitosis
  melting temperature: 51.3 °C
HeLa Kyoto [3]
  solubility change mitosis (log2): 0.0486
HeLa Kyoto [4]; [5]
  thermal stability score: 2.36
HeLa Kyoto [4]; cell cycle stage: mitosis
  thermal stability score: 2

## MTAEDSTAAMSSDSAAGSSAKVPEGVAGAPNEAALLALMERTGYSMVQENGQRKYGGPPPGWEGPHPQRGCEVFVGKIPRDVYEDELVPVFEAVGRIYELRLMMDFDGKNRGYAFVMYCHKHEAKRAVRELNNYEIRPGRLLGVCCSVDNCRLFIGGIPKMKKREEILEEIAKVTEGVLDVIVYASAADKMKNRGFAFVEYESHRAAAMARRKLMPGRIQLWGHQIAVDWAEPEIDVDEDVMETVKILYVRNLMIETTEDTIKKSFGQFNPGCVERVKKIRDYAFVHFTSREDAVHAMNNLNGTELEGSCLEVTLAKPVDKEQYSRYQKAARGGGAAEAAQQPSYVYSCDPYTLAYYGYPYNALIGPNRDYFVKAGSIRGRGRGAAGNRAPGPRGSYLGGYSAGRGIYSRYHEGKGKQQEKGYELVPNLEIPTVNPVAIKPGTVAIPAIGAQYSMFPAAPAPKMIEDGKIHTVEHMISPIAVQPDPASAAAAAAAAAAAAAAVIPTVSTPPPFQGRPITPVYTVAPNVQRIPTAGIYGASYVPFAAPATATIATLQKNAAAAAAMYGGYAGYIPQAFPAAAIQVPIPDVYQTY [RBM47]
HeLa Kyoto [1]
  solubility in G1/S (log2): -0.0256
HeLa Kyoto [2]; cell cycle stage: G1/S
  melting temperature: 48.2 °C
HeLa Kyoto [2]; cell cycle stage: mitosis
  melting temperature: 47.4 °C
HeLa Kyoto [3]
  solubility change mitosis (log2): -0.0191
HeLa Kyoto [4]; [5]
  thermal stability score: 0.77
HeLa Kyoto [4]; cell cycle stage: mitosis
  thermal stability score: 1.83

## MTAEEMKATESGAQSAPLPMEGVDISPKQDEGVLKVIKREGTGTEMPMIGDRVFVHYTGWLLDGTKFDSSLDRKDKFSFDLGKGEVIKAWDIAIATMKVGEVCHITCKPEYAYGSAGSPPKIPPNATLVFEVELFEFKGEDLTEEEDGGIIRRIQTRGEGYAKPNEGAIVEVALEGYYKDKLFDQRELRFEIGEGENLDLPYGLERAIQRMEKGEHSIVYLKPSYAFGSVGKEKFQIPPNAELKYELHLKSFEKAKESWEMNSEEKLEQSTIVKERGTVYFKEGKYKQALLQYKKIVSWLEYESSFSNEEAQKAQALRLASHLNLAMCHLKLQAFSAAIESCNKALELDSNNEKGLFRRGEAHLAVNDFELARADFQKVLQLYPNNKAAKTQLAVCQQRIRRQLAREKKLYANMFERLAEEENKAKAEASSGDHPTDTEMKEEQKSNTAGSQSQVETEA [FKBP4]
HeLa Kyoto [1]
  solubility in G1/S (log2): 0.197
HeLa Kyoto [2]; cell cycle stage: G1/S
  melting temperature: 50 °C
HeLa Kyoto [2]; cell cycle stage: mitosis
  melting temperature: 50.1 °C
HeLa Kyoto [3]
  solubility change mitosis (log2): -0.129
HeLa Kyoto [4]; [5]
  thermal stability score: 1.07
HeLa Kyoto [4]; cell cycle stage: mitosis
  thermal stability score: 1.03

## MTANRDAALSSHRHPGCAQRPRTPTFASSSQRRSAFGFDDGNFPGLGERSHAPGSRLGARRRAKTARGLRGHRQRGAGAGLSRPGSARAPSPPRPGGPENPGGVLSVELPGLLAQLARSFALLLPVYALGYLGLSFSWVLLALALLAWCRRSRGLKALRLCRALALLEDEERVVRLGVRACDLPAWVHFPDTERAEWLNKTVKHMWPFICQFIEKLFRETIEPAVRGANTHLSTFSFTKVDVGQQPLRINGVKVYTENVDKRQIILDLQISFVGNCEIDLEIKRYFCRAGVKSIQIHGTMRVILEPLIGDMPLVGALSIFFLRKPLLEINWTGLTNLLDVPGLNGLSDTIILDIISNYLVLPNRITVPLVSEVQIAQLRFPVPKGVLRIHFIEAQDLQGKDTYLKGLVKGKSDPYGIIRVGNQIFQSRVIKENLSPKWNEVYEALVYEHPGQELEIELFDEDPDKDDFLGSLMIDLIEVEKERLLDEWFTLDEVPKGKLHLRLEWLTLMPNASNLDKVLTDIKADKDQANDGLSSALLILYLDSARNLPSGKKISSNPNPVVQMSVGHKAQESKIRYKTNEPVWEENFTFFIHNPKRQDLEVEVRDEQHQCSLGNLKVPLSQLLTSEDMTVSQRFQLSNSGPNSTIKMKIALRVLHLEKRERPPDHQHSAQVKRPSVSKEGRKTSIKSHMSGSPGPGGSNTAPSTPVIGGSDKPGMEEKAQPPEAGPQGLHDLGRSSSSLLASPGHISVKEPTPSIASDISLPIATQELRQRLRQLENGTTLGQSPLGQIQLTIRHSSQRNKLIVVVHACRNLIAFSEDGSDPYVRMYLLPDKRRSGRRKTHVSKKTLNPVFDQSFDFSVSLPEVQRRTLDVAVKNSGGFLSKDKGLLGKVLVALASEELAKGWTQWYDLTEDGTRPQAMT [ESYT2]
HeLa Kyoto [1]
  solubility in G1/S (log2): -0.095
HeLa Kyoto [2]; cell cycle stage: G1/S
  melting temperature: 51.2 °C
HeLa Kyoto [2]; cell cycle stage: mitosis
  melting temperature: 51.5 °C
HeLa Kyoto [3]
  solubility change mitosis (log2): -0.0587
HeLa Kyoto [4]; [5]
  thermal stability score: 0.682
HeLa Kyoto [4]; cell cycle stage: mitosis
  thermal stability score: 0.876
